From patent US20130129739A1

Target: human prolactin receptor (PRLR) on cells (human) (UniProt P16471)
Assay: cell-based or functional assay

Sequence of human prolactin receptor (PRLR) on cells (human) (P16471 25-622): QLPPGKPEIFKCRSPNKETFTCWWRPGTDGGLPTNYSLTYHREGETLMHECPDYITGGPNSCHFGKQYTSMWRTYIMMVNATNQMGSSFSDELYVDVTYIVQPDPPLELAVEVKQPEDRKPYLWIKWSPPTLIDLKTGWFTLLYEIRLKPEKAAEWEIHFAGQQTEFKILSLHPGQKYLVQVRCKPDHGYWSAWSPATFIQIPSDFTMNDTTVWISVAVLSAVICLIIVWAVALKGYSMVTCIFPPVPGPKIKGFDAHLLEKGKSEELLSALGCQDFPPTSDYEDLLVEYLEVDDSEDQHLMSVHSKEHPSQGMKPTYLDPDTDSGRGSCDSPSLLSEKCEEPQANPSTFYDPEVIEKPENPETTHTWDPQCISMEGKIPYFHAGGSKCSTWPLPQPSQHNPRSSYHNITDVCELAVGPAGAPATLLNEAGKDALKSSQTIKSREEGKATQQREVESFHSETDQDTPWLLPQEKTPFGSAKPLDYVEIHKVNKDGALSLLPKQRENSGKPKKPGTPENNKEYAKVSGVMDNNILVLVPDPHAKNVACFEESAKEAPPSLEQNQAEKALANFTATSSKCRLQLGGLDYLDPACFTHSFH

Substance: Negative control (Table 8)
- Inhibition of phosphorylation of ERK1/2 in % at 7.5 µg/ml (ELISA, prolactin-treated T47D lysates): 9%
- Inhibition of phosphorylation of PRLR in % at 7.5 µg/ml (ELISA, prolactin-treated T47D lysates): 2%
- Inhibition of phosphorylation of STAT5 in % at 7.5 µg/ml (ELISA, prolactin-treated T47D lysates): 0%
